Results from patent US20250312499A1, “KISSPEPTIN RECEPTOR (KISS1R) TARGETED THERAPEUTICS AND USES THEREOF” (priority 2024, published 2025).
Numbered stars: 1 amine (or outer) side, 2 acyl side, 3 side chain; on linkers, the order of the positions; unused ones are H or OH. Square brackets hold non-standard residues; d marks the D form. Primed or numbered codes have the meaning given here. Side chains are listed from the residue outwards. Ends that are not written are not given here. * marks the point of attachment. X2 = 4‑amino‑1‑((3-fluoro-4-methylbenzyl)glycyl)piperidine‑4‑carboxylic acid, Cc1ccc(CN(CC(=O)N2CCC(N[*:1])(C(=O)[*:2])CC2)[*:3])cc1F; DOTA = O=C(O)CN1CCN(CC(=O)O)CCN(CC(=O)*)CCN(CC(=O)O)CC1; Piperidine‑2‑carboxylic_acid(MeGly) = not defined here; Ala(9-anthryl) = N[C@@H](Cc1c2ccccc2cc2ccccc12)C(=O)O; Butanoyl(4-(4-I-phenyl)) = O=C(CCCc1ccc(I)cc1)*; Bpa = N[C@@H](Cc1ccc(C(=O)c2ccccc2)cc1)C(=O)O; Api(1-amidino) = N=C(N)N1CCC(N)(C(=O)O)CC1; Bip = N[C@@H](Cc1ccc(-c2ccccc2)cc1)C(=O)O; γGlu = O=C(O)[C@H](CCC(=O)[*:2])N[*:1]; d2Nal = N[C@H](Cc1ccc2ccccc2c1)C(=O)O; εLys = N[C@@H](CCCCN[*:1])C(=O)[*:2]; Adipoyl = O=C(CCCCC(=O)[*:2])[*:1]; Palmitoyl = CCCCCCCCCCCCCCCC(=O)*; Hyp = O=C(O)[C@@H]1C[C@@H](O)CN1; 4Pal = N[C@@H](Cc1ccncc1)C(=O)O; d4Pal = N[C@H](Cc1ccncc1)C(=O)O; Cha = N[C@@H](CC1CCCCC1)C(=O)O; 4Amb = NCc1ccc(C(=O)O)cc1; PEG4′ = not defined here; dCsA = not defined here; Ahx = NCCCCCC(=O)O; azaGly = NNC(=O)O

B1: Compound 117 (peptide)
peptide: [dY][dW]NTF[azaGly]L[X2]W-NH2
modifications: not fully specified (N-terminus); also: N-terminal Lys linked through its epsilon amine to adipoyl, which acylates D-Tyr1
B2: Compound 109 (peptide)
peptide: {DOTA-4Amb}-F[azaGly]L[X2]W-NH2
SMILES: Cc1ccc(CNCC(=O)N2CCC(NC(=O)[C@H](CC(C)C)NC(=O)NNC(=O)[C@H](Cc3ccccc3)NC(=O)c3ccc(CNC(=O)CN4CCN(CC(=O)O)CCN(CC(=O)O)CCN(CC(=O)O)CC4)cc3)(C(=O)N[C@@H](Cc3c[nH]c4ccccc34)C(N)=O)CC2)cc1F
B3: Compound 113 (peptide)
peptide: {DOTA-Ahx}-[dY][dW]NAF[azaGly]L[X2]L-NH2
SMILES: Cc1ccc(CNCC(=O)N2CCC(NC(=O)[C@H](CC(C)C)NC(=O)NNC(=O)[C@H](Cc3ccccc3)NC(=O)[C@H](C)NC(=O)[C@H](CC(N)=O)NC(=O)[C@@H](Cc3c[nH]c4ccccc34)NC(=O)[C@@H](Cc3ccc(O)cc3)NC(=O)CCCCCNC(=O)CN3CCN(CC(=O)O)CCN(CC(=O)O)CCN(CC(=O)O)CC3)(C(=O)N[C@@H](CC(C)C)C(N)=O)CC2)cc1F
B4: Compound 183 (peptide)
peptide: {DOTA}-[Ahx][dY][Bpa]NTF[azaGly]L[Api(1-amidino)]W-NH2
SMILES: CC(C)C[C@H](NC(=O)NNC(=O)[C@H](Cc1ccccc1)NC(=O)[C@@H](NC(=O)[C@H](CC(N)=O)NC(=O)[C@H](Cc1ccc(C(=O)c2ccccc2)cc1)NC(=O)[C@@H](Cc1ccc(O)cc1)NC(=O)CCCCCNC(=O)CN1CCN(CC(=O)O)CCN(CC(=O)O)CCN(CC(=O)O)CC1)[C@@H](C)O)C(=O)NC1(C(=O)N[C@@H](Cc2c[nH]c3ccccc23)C(N)=O)CCN(C(=N)N)CC1
B5: Compound 300 (peptide)
peptide: {DOTA-Ahx}-[dY][d2Nal]NTF[azaGly]L[Api(1-amidino)]F-NH2
SMILES: CC(C)C[C@H](NC(=O)NNC(=O)[C@H](Cc1ccccc1)NC(=O)[C@@H](NC(=O)[C@H](CC(N)=O)NC(=O)[C@@H](Cc1ccc2ccccc2c1)NC(=O)[C@@H](Cc1ccc(O)cc1)NC(=O)CCCCCNC(=O)CN1CCN(CC(=O)O)CCN(CC(=O)O)CCN(CC(=O)O)CC1)[C@@H](C)O)C(=O)NC1(C(=O)N[C@@H](Cc2ccccc2)C(N)=O)CCN(C(=N)N)CC1
B6: Compound 310 (peptide)
peptide: {DOTA-Ahx}-[dK](Butanoyl(4-(4-I-phenyl)))[dY][d2Nal]NTF[azaGly]L[Api(1-amidino)]F-NH2
SMILES: CC(C)C[C@H](NC(=O)NNC(=O)[C@H](Cc1ccccc1)NC(=O)[C@@H](NC(=O)[C@H](CC(N)=O)NC(=O)[C@@H](Cc1ccc2ccccc2c1)NC(=O)[C@@H](Cc1ccc(O)cc1)NC(=O)[C@@H](CCCCNC(=O)CCCc1ccc(I)cc1)NC(=O)CCCCCNC(=O)CN1CCN(CC(=O)O)CCN(CC(=O)O)CCN(CC(=O)O)CC1)[C@@H](C)O)C(=O)NC1(C(=O)N[C@@H](Cc2ccccc2)C(N)=O)CCN(C(=N)N)CC1
B7: Compound 301 (peptide)
peptide: {DOTA-Ahx}-[d2Nal]NTF[azaGly]L[Api(1-amidino)]F-NH2
SMILES: CC(C)C[C@H](NC(=O)NNC(=O)[C@H](Cc1ccccc1)NC(=O)[C@@H](NC(=O)[C@H](CC(N)=O)NC(=O)[C@@H](Cc1ccc2ccccc2c1)NC(=O)CCCCCNC(=O)CN1CCN(CC(=O)O)CCN(CC(=O)O)CCN(CC(=O)O)CC1)[C@@H](C)O)C(=O)NC1(C(=O)N[C@@H](Cc2ccccc2)C(N)=O)CCN(C(=N)N)CC1
B8: Compound 317 (peptide)
peptide: {DOTA-Ahx}-[dY][d2Nal]NT[Cha][azaGly]L[Api(1-amidino)]W-NH2
SMILES: CC(C)C[C@H](NC(=O)NNC(=O)[C@H](CC1CCCCC1)NC(=O)[C@@H](NC(=O)[C@H](CC(N)=O)NC(=O)[C@@H](Cc1ccc2ccccc2c1)NC(=O)[C@@H](Cc1ccc(O)cc1)NC(=O)CCCCCNC(=O)CN1CCN(CC(=O)O)CCN(CC(=O)O)CCN(CC(=O)O)CC1)[C@@H](C)O)C(=O)NC1(C(=O)N[C@@H](Cc2c[nH]c3ccccc23)C(N)=O)CCN(C(=N)N)CC1
B9: Compound 184 (peptide)
peptide: {DOTA}-[Ahx][dY][Ala(9-anthryl)]NTF[azaGly]L[Api(1-amidino)]W-NH2
SMILES: CC(C)C[C@H](NC(=O)NNC(=O)[C@H](Cc1ccccc1)NC(=O)[C@@H](NC(=O)[C@H](CC(N)=O)NC(=O)[C@H](Cc1c2ccccc2cc2ccccc12)NC(=O)[C@@H](Cc1ccc(O)cc1)NC(=O)CCCCCNC(=O)CN1CCN(CC(=O)O)CCN(CC(=O)O)CCN(CC(=O)O)CC1)[C@@H](C)O)C(=O)NC1(C(=O)N[C@@H](Cc2c[nH]c3ccccc23)C(N)=O)CCN(C(=N)N)CC1
B10: Compound 311 (peptide)
peptide: {DOTA-Ahx}-[dY][Hyp]NTF[azaGly]L[Api(1-amidino)]W-NH2
SMILES: CC(C)C[C@H](NC(=O)NNC(=O)[C@H](Cc1ccccc1)NC(=O)[C@@H](NC(=O)[C@H](CC(N)=O)NC(=O)[C@@H]1C[C@@H](O)CN1C(=O)[C@@H](Cc1ccc(O)cc1)NC(=O)CCCCCNC(=O)CN1CCN(CC(=O)O)CCN(CC(=O)O)CCN(CC(=O)O)CC1)[C@@H](C)O)C(=O)NC1(C(=O)N[C@@H](Cc2c[nH]c3ccccc23)C(N)=O)CCN(C(=N)N)CC1
B11: Compound 198 (peptide)
peptide: {DOTA}-[Ahx][dY][Bip]NTF[azaGly]L[Api(1-amidino)]W-NH2
SMILES: CC(C)C[C@H](NC(=O)NNC(=O)[C@H](Cc1ccccc1)NC(=O)[C@@H](NC(=O)[C@H](CC(N)=O)NC(=O)[C@H](Cc1ccc(-c2ccccc2)cc1)NC(=O)[C@@H](Cc1ccc(O)cc1)NC(=O)CCCCCNC(=O)CN1CCN(CC(=O)O)CCN(CC(=O)O)CCN(CC(=O)O)CC1)[C@@H](C)O)C(=O)NC1(C(=O)N[C@@H](Cc2c[nH]c3ccccc23)C(N)=O)CCN(C(=N)N)CC1
B12: Compound 185 (peptide)
peptide: {DOTA}-[Ahx][dY][d2Nal]NTF[azaGly]L[Api(1-amidino)]Y-NH2
SMILES: CC(C)C[C@H](NC(=O)NNC(=O)[C@H](Cc1ccccc1)NC(=O)[C@@H](NC(=O)[C@H](CC(N)=O)NC(=O)[C@@H](Cc1ccc2ccccc2c1)NC(=O)[C@@H](Cc1ccc(O)cc1)NC(=O)CCCCCNC(=O)CN1CCN(CC(=O)O)CCN(CC(=O)O)CCN(CC(=O)O)CC1)[C@@H](C)O)C(=O)NC1(C(=O)N[C@@H](Cc2ccc(O)cc2)C(N)=O)CCN(C(=N)N)CC1

The binders below were run against human kisspeptin receptor (KISS1R) (human), Q969F8 (assay: radioligand competition, hKISS1R membranes; legend: A is <10 nM).
Chain of human kisspeptin receptor (KISS1R) (human), Q969F8 (Q969F8 whole entry): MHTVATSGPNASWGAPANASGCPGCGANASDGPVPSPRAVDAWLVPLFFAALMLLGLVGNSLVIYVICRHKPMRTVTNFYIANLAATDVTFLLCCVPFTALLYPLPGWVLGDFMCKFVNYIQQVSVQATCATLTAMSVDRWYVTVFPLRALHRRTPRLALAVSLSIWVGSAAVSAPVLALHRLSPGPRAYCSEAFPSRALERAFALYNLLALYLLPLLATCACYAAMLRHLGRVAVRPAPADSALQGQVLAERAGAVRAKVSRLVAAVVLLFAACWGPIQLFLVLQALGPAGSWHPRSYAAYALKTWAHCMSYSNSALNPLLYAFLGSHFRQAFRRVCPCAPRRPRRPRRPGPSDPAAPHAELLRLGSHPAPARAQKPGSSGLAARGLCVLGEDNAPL

Ki, < 10 nM:
{DOTA-dCsA-Ahx}-[dY][dW]NTF[azaGly]L[X2]W-NH2 (not fully specified; reading uncertain) [Compound 115]
{DOTA-Ahx}-[dY][dW]NTF[azaGly]L[4‑amino‑1‑((4-methoxybenzyl)glycyl)piperidine‑4‑carboxylic acid]F-NH2 [Compound 140]
B1
B2
{DOTA-4Amb-Met-Val-εLys-Adipoyl}-F[azaGly]L[X2]W-NH2 [Compound 132]
{DOTA-Met-Val-εLys-Adipoyl}-[dY][dW]NTF[azaGly]L[X2]W-NH2 [Compound 133]
B3
Palmitoyl-[γGlu]K([PEG4′-DOTA])[dY][dW]NTF[azaGly]L[X2]W-NH2 [Compound 119]

Each binder was assayed against human kisspeptin receptor (KISS1R) (human) (UniProt Q969F8) in the same assay as above.
Chain of human kisspeptin receptor (KISS1R) (human) (Q969F8 whole entry): as above

Ki, < 10 nM:
{DOTA-Ahx}-[dY][d4Pal]NTF[azaGly]L[Apc(OMe)][4Pal]-NH2 [Compound 299]
B4
{DOTA}-[dY][3‑(9-anthryl)alanine]NTF[azaGly]L[Api(1-amidino)][4Pal]-NH2 [Compound 221]
B5
{DOTA-Ahx}-[dY][3‑(9-anthryl)alanine]NTF[azaGly]L[Api(1-amidino)][4Pal]-NH2 [Compound 222]
B6
B7
B8
B9
{DOTA-Ahx}-[dK](4‑(p-tolyl)butanoyl)[dY][d2Nal]NTF[azaGly]L[Api(1-amidino)]F-NH2 [Compound 309]
{DOTA-Ahx}-[dY][d2Nal]NTF[azaGly]L[Api(1-amidino)]W-NH2 [Compound 269]
B10
{DOTA}-[Ahx][dY][d2Nal]NTF[azaGly]L[Piperidine‑2‑carboxylic_acid(MeGly)]W-NH2 (not fully specified; reading uncertain) [Compound 201]
B11
B12
